Data as given in patent publication US20110117113A1, “IMMUNOGLOBULIN SINGLE VARIABLE DOMAIN DIRECTED AGAINST HUMAN CXCR4 AND OTHER CELL ASSOCIATED PROTEINS AND METHODS TO GENERATE THEM” (priority 2009, published 2011).
“Also recorded” adds a separate entry of the source.

What was measured:
CXCR4 [1] = target: T1, CXCR4 (Homo sapiens, UniProt P61073); assay: Competition binding, displacement of [^125I]-238D2 on membranes from HEK293T cells transiently expressing CXCR4; conditions: mean ± S.E.M.
T1 construct: expressed in transfected cells; host or cells: HEK293T, transient; membrane fraction
Experimental: (§1) Iodine incorporation and specific activity were controlled via precipitation of the protein with trichloroacetic acid.
(§2) Competition binding assay—Periplasmic fractions were screened in a competition binding assay using membranes from HEK293T cells transiently expressing CXCR4. […] Membranes were then harvested over polyethylenimine (0.5%)-treated Whatman GF/C filter plates and washed three times with ice cold binding buffer containing 500 mM NaCl. Plates were counted by liquid scintillation.
(§3) Characterization of Nanobody binding to CXCR4—Following purification, receptor binding to characteristics for 238D2 and 238D4 were investigated on cell membranes from HEK293T cells transiently expressing CXCR4.
(§4) Data analysis and presentation—Data are presented as mean±S.E.M. from n independent experiments. Concentration response curves (E/[A] curves) were fitted to the Hill equation using an iterative, least-squares method (GraphPad Prism 4.0, GraphPad Software, San Diego, Calif.) to provide maximal inhibitory effects (Imax), half maximal effective (EC50) or inhibitory concentrations (IC50). Competition binding affinities and functional antagonist affinities (Ki) were calculated using the Cheng and Prusoff equation Ki=IC50/(1+[agonist]/EC50) (Cheng & Prusoff, 1973).

CXCR4 [2] = target: T1, CXCR4; assay: Competition binding, displacement of [^125I]-CXCL12 on membranes from HEK293T cells transiently expressing CXCR4
Experimental: as §1, §2, §3, §4

T1 sequence (P61073 whole entry): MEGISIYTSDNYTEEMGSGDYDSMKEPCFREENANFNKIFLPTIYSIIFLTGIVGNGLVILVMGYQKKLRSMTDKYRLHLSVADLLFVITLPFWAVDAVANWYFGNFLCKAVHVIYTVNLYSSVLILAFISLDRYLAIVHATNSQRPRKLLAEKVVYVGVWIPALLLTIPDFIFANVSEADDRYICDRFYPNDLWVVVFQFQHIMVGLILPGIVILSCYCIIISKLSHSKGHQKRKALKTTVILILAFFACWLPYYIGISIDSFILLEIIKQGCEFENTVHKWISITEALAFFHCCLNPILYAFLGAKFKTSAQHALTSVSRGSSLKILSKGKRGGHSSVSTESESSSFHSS

[^125I]-238D2 Displacem. (%) (CXCR4 [1]; maximal displacement): 97 ± 6%
[^125I]-238D2 pKi (CXCR4 [1]; receptor affinity): 8.41 ± 0.11
functional antagonist affinities (Ki) to CXCR4 (CXCR4 [2]; in words, [^125I]-CXCL12 displacement): low nanomolar range
[^125I]-CXCL12 Displacem. (%) (CXCR4 [2]; maximal displacement, membranes from HEK293T cells transiently expressing CXCR4, mean ± S.E.M.): 93 ± 5%
[^125I]-CXCL12 pKi (CXCR4 [2]; receptor affinity, membranes from HEK293T cells transiently expressing CXCR4, mean ± S.E.M.): 8.01 ± 0.12
B1: 238D2: monovalent anti CXCR4 Nanobody, SEQ ID NO: 2 (protein)
VHH: EVQLVESGGGLVQTGGSLRLSCAASGFTFSSYAMSWVRQAPGKGLEWVSGIKSSGDSTRYAGSVKGRFTISRDNAKNMLYLQMYSLKPEDTAVYYCAKSRVSRTGLYTYDNRGQGTQVTVSS
modifications: Nanobody
displacement of specifically bound [^125I]-CXCL12 (in words) (CXCR4 [2]; membranes from HEK293T cells transiently expressing CXCR4): strongly displacing; also recorded: fully displace
